Data taken from patent US20260364215A1, “Radiopharmaceutical Compositions Targeting Ephrin Type-A Receptor 2 and Uses Thereof” (PeptiDream Inc., priority 2022, published 2026).
Like-named read-outs stand apart in the source and are kept apart here. Numbered stars: 1 amine (or outer) side, 2 acyl side, 3 side chain; on linkers, the order of the positions; unused ones are H or OH. Bridge positions count the residues as written; N and C are the ends. Square brackets hold non-standard residues; d marks the D form. Side chains are listed from the residue outwards. Peptide text beside a SMILES is read from it. * marks the point of attachment. DOTA(Lu) = O=C1CN2CCN3CCN(CC(=O)*)CCN(CC2)CC(=O)[O][Lu]([O]1)[O]C(=O)C3; NH(1-deoxy-D-glucityl) = OC[C@@H](O)[C@@H](O)[C@H](O)[C@@H](O)CN*; DOTA = O=C(O)CN1CCN(CC(=O)O)CCN(CC(=O)*)CCN(CC(=O)O)CC1; Trp(1-Me,7-Cl) = Cn1cc(C[C@H](N)C(=O)O)c2cccc(Cl)c21; dPhe(3-CONH2) = NC(=O)c1cccc(C[C@@H](N)C(=O)O)c1; NMePhe(3-CN) = CN[C@@H](Cc1cccc(C#N)c1)C(=O)O; Piperazinyl(4-CH2COOH) = O=C(O)CN1CCN(*)CC1; Trp(1-Me) = Cn1cc(C[C@H](N)C(=O)O)c2ccccc21; NMemTyr = CN[C@@H](Cc1cccc(O)c1)C(=O)O; NMe3Pal = CN[C@@H](Cc1cccnc1)C(=O)O; NMeF = CN[C@@H](Cc1ccccc1)C(=O)O; Gly(cBu) = N[C@H](C(=O)O)C1CCC1; NMeE = CN[C@@H](CCC(=O)O)C(=O)O; Aad = N[C@@H](CCCC(=O)O)C(=O)O; NMeN = CN[C@@H](CC(N)=O)C(=O)O; CO = O=C([*:1])[*:2]

Columns and labels:
[1] = Plasma stability (% remaining and T1/2 of test compound in human plasma; Table C1); format: in vitro ADME
Experimental: (§1) The % remaining of test compound after incubation in plasma was calculated using the following equation:
(§2) % Remaining=100×(PAR(t)/PAR(t0)), where PAR is the peak area ratio of analyte versus internal standard (IS)

[2] = Plasma stability (% remaining of test compound in CD-1 (ICR) mouse plasma at 37 °C; Example C1); format: in vitro ADME
Experimental: Example C1. Plasma Stability
The pooled frozen CD-1 (ICR) mouse plasma was thawed in a water bath at 37 °C prior to experiment. Plasma was centrifuged at 4000 rpm for 5 min and the clots were removed if any. pH was adjusted to 7.4±0.1 if required.
Plasma (98 μL) and test compounds (2 μL, 100 μM, in DMSO) or reference compound propantheline bromide (2 μL, 100 μM in 40% v/v MeOH/H2O) were added to the individual wells of a 96-well microtiter plate in duplicate. The plate was incubated at 37 °C. During the incubation, aliquots were withdrawn at 0, 10, 30, 60, 120, and 300 minutes. 100 μL 4% H3PO4 and 800 μL of stop solution (200 ng/mL tolbutamide and 200 ng/mL labetalol in 100% CH3CN) were added to precipitate unwanted proteins. After mixing thoroughly, the quenched aliquots were centrifuged at 4,000 rpm for 20 min. Aliquots (100 μL) of supernatant were transferred to a new plate. The samples were shaken at 800 rpm for 10 min before performing LC-MS/MS analysis.
The analytes were detected by a multiple reaction monitoring method using a SCIEX Triple Quad 6500+ system equipped with an ACQUITY UPLC HSS T3 column (100 Å, 1.8 μm, 2.1 mm×30 mm). Mobile phase A: water with 0.1% formic acid; Mobile phase B: CH3CN with 0.1% formic acid.
as §1, §2

[3] = target: T1, Recombinant Human EphA2 Fc Protein (Homo sapiens, UniProt P29317); experiment: Interaction analysis (kinetics, KD) of peptides and conjugates against EphA2 by SPR, Biacore T200, single-cycle kinetics (Examples B15 and B22); format: binding
T1 construct: purchased Elabscience
T1 sequence (P29317 24-534 limits assumed): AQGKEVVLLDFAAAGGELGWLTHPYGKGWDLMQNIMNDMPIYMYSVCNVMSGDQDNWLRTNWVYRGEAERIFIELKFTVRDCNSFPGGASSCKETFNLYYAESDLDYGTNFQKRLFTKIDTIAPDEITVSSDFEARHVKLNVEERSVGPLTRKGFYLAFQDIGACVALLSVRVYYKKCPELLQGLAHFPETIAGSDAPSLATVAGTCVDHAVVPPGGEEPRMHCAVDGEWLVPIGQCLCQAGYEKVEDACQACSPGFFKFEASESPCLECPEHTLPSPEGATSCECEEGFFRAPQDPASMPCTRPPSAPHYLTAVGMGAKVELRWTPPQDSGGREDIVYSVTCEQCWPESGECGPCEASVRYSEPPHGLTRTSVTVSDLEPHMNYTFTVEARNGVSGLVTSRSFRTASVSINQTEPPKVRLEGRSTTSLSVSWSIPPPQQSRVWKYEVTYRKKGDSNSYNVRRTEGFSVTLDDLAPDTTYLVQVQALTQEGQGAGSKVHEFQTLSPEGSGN
Outline: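 Biacore T200 SPR with Fc-tagged human EphA2 captured via anti-human antibody; running buffer HBS-P+ pH 7.4 with 1% DMSO, 25 °C. Five serial dilutions of peptide or conjugate run by single-cycle kinetics; KD from ka and kd after baseline subtraction.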

[4] = conjugates, Biacore T200 according to Example B15, Table B16, read-out: SPR Kd

For `CC(C)C[C@@H]1NC(=O)[C@H](CC(N)=O)NC(=O)[C@H](Cc2cccnc2)N(C)C(=O)[C@@H](C)NC(=O)CSC[C@@H](C(=O)N[C@H](CCCCNC(=O)CN2CCN(CC(=O)O)CCN(CC(=O)O)CCN(CC(=O)O)CC2)C(N)=O)NC(=O)[C@H](CCCC(N)=O)NC(=O)[C@H]([C@@H](C)O)NC(=O)[C@H](Cc2cn(C)c3ccccc23)NC(=O)[C@H](CCCCNC(=O)N2CCN(CC(=O)O)CC2)NC(=O)[C@H](Cc2cn(C)c3ccccc23)NC(=O)[C@H](Cc2ccccc2)N(C)C(=O)[C@H](CCCC(N)=O)NC1=O.[Lu+3]` [PDC_EphA2-00008093-C302] ({CH2CO}-[dA][NMe3Pal]NL[Aad](NH2)[NMeF][Trp(1-Me)]K([CO-Piperazinyl(4-CH2COOH)])[Trp(1-Me)]T[Aad](NH2)C[dK](DOTA)-NH2; thioether N-12), the half-life [1] was greater than 289 min, the “% Remaining Human” value ([1]; 0 min) was 100.0% and the remaining at 2 h ([1]; 120 min) was 102%. For the same molecule, the “% Remaining Mouse” value ([2]; 0 min) was 100.0%, the remaining at 2 h, 2 µM ([2]; pH 7.4, 120 min) was 101% and the half-life at 2 µM ([2]; pH 7.4, read-out: T1/2 (min) Mouse) was greater than 289 min. For the same molecule, the Kd [3, 4] was less than 1 nM.

Work on `C[C@@H](O)[C@@H]1NC(=O)[C@H](Cc2cn(C)c3ccccc23)NC(=O)[C@H](CCC(=O)NC[C@H](O)[C@@H](O)[C@H](O)[C@H](O)CO)NC(=O)[C@H](Cc2cn(C)c3c(Cl)cccc23)NC(=O)[C@H](Cc2cccnc2)N(C)C(=O)[C@H](CCCC(N)=O)NC(=O)[C@H](C2CCC2)NC(=O)[C@H](CC(N)=O)NC(=O)[C@H](Cc2cccc(C#N)c2)N(C)C(=O)[C@@H](Cc2cccc(C(N)=O)c2)NC(=O)CSC[C@@H](C(=O)N[C@H](CCCCNC(=O)CN2CCN(CC(=O)O)CCN(CC(=O)O)CCN(CC(=O)O)CC2)C(N)=O)NC(=O)[C@H](CCCC(N)=O)NC1=O.[Lu+3]` [PDC_EphA2-00022614-C302] ({CH2CO}-[dPhe(3-CONH2)][NMePhe(3-CN)]N[Gly(cBu)][Aad](NH2)[NMe3Pal][Trp(1-Me,7-Cl)]E(NH(1-deoxy-D-glucityl))[Trp(1-Me)]T[Aad](NH2)C[dK](DOTA)-NH2; thioether N-12) yielded a Kd [3, 4] of less than 1 nM.

`CC(C)C[C@@H]1NC(=O)[C@H](CC(N)=O)NC(=O)[C@H](Cc2cccnc2)N(C)C(=O)[C@@H](Cc2cccc(C(N)=O)c2)NC(=O)CSC[C@@H](C(N)=O)NC(=O)[C@H](CCCC(N)=O)NC(=O)[C@H]([C@@H](C)O)NC(=O)[C@H](Cc2cn(C)c3ccccc23)NC(=O)[C@H](CCCCNC(=O)CN2CCN3CCN4CCN(CC2)CC(=O)[O][Lu]([O]C(=O)C3)[O]C(=O)C4)NC(=O)[C@H](Cc2cn(C)c3c(Cl)cccc23)NC(=O)[C@H](CC(N)=O)N(C)C(=O)[C@H](CCCC(N)=O)NC1=O` [PDC_EphA2-00026715] ({CH2CO}-[dPhe(3-CONH2)][NMe3Pal]NL[Aad](NH2)[NMeN][Trp(1-Me,7-Cl)]K(DOTA(Lu))[Trp(1-Me)]T[Aad](NH2)C-NH2; thioether N-12) gave a Kd [3] of less than 1 nM.

Work on `CN1C(=O)[C@H](CCCC(N)=O)NC(=O)[C@H](C2CCC2)NC(=O)[C@H](CC(N)=O)NC(=O)[C@H](Cc2cccc(O)c2)N(C)C(=O)[C@@H](Cc2cccc(C(N)=O)c2)NC(=O)CSC[C@@H](C(=O)N[C@@H](CCCCNC(=O)CN2CCN3CCN4CCN(CC2)CC(=O)[O][Lu]([O]C(=O)C3)[O]C(=O)C4)C(N)=O)NC(=O)[C@H](Cc2cn(C)c3ccccc23)NC(=O)[C@H](CCCCNC(=O)N2CCN(CC(=O)O)CC2)NC(=O)[C@H](Cc2cn(C)c3c(Cl)cccc23)NC(=O)[C@@H]1CCC(=O)O` [PDC_EphA2-00026608-C301] ({CH2CO}-[dPhe(3-CONH2)][NMemTyr]N[Gly(cBu)][Aad](NH2)[NMeE][Trp(1-Me,7-Cl)]K([CO-Piperazinyl(4-CH2COOH)])[Trp(1-Me)]CK(DOTA(Lu))-NH2; thioether N-10) yielded a Kd [3] of less than 1 nM.
